# Test results as given in PMC2650471, “The structure of NMB1585, a MarR-family regulator from Neisseria meningitidis” (Acta Crystallographica Section F: Structural Biology and …, 2009).
# B1: NMB1585, MarR-family transcription factor from Neisseria meningitidis (natural protein)
# chain: MNQLDQLGTRINLICNVFDKWIGQQDLNYNLFAVLYTLATEGSRTQKHIGEKWSLPKQTVSGVCKTLAGQGLIEWQEGEQDRRKRLLSLTETGKAYAAPLTESAQEFSDKVFATFGDKRTTRLFADLDALAEVMEKTISENKK
# modifications: selenomethionine-labelled (selenomethionine in place of methionine)
# notes: NMB1585, MarR-family regulator, Neisseria meningitidis strain MC58; amplified from genomic DNA with primers that run from the ATG start codon to the stop codon; cloned into pDEST17 with an N-terminal His tag and a 3C protease cleavage site; also called meningococcal MarR; source: tag removed with 3C protease; not shown: His tag, N-terminal, cleaved
# Target: the molecule itself
# Assay: crystal structure; selenomethionine-labelled NMB1585, 9.7 mg/ml in 20 mM Tris pH 7.5, 200 mM NaCl, 1 mM TCEP; crystals from 0.1 M HEPES pH 7.5, 25% PEG 3350, 0.2 M ammonium chloride; space group P2(1), two subunits per asymmetric unit; 2.1 Å
protein,measurement,value
B1,stoichiometry N,2
